Key:
[1] = Melting temperature (Tm) of the enzyme at varying EMIM Acetate concentration; type: physicochemical
[2] = Activity assay on insoluble substrate: [C2mim][OAc] pretreated corn stover; type: biochemical; settings: pCorn stover
Source text: Corn stover refers to stalks, leaves and cobs that remain in the fields after the corn kernel harvest and is the largest quantity of biomass residue in the United States and as such is also a LC-biomass source for producing cellulosic ethanol in the United States. [C2mim][OAc] pretreated corn stover is used as a substrate to verify enzymatic efficiency on IL-pretreated biomass and a comparison made with [C2mim][OAc] pretreated Avicel. Avicel is a commercially available microcrystalline cellulose and a good model substrate for analysis. Similar assays are done in the presence of [C2mim][OAc] to simulate real biomass processing and saccharification scenarios. The assay products for the reactions in the presence of IL are detected by high performance anion exchange chromatography (HPAEC). The enzymatic hydrolysis reaction is carried out for 8 h for the T. viride cellulase and 15 h for the hyperthermophilic enzymes, taking into account the half-lives of these enzymes. To compare the amounts of total sugars formed between different reactions, the sum of glucose, xylose and cellobiose are calculated and reported as mmoles of sugars formed per min per mg of enzyme used (Table 7). A comparison of assay results between pretreated and untreated substrate indicates a 2-6 fold increase in hydrolysis products after pretreatment irrespective of the enzyme used, thereby confirming that IL pretreatment can increase the efficiency of hydrolysis of cellulose recovered from biomass. […] The catalytic efficiency of the fungal enzyme however, decreases with increasing IL concentration in the reaction mix. After normalizing for the reaction time and enzyme amounts, the amount of sugars formed is undetectable at 15% [C2mim][OAc]. […] The yield of sugars from Tma Cel5A hydrolysis of pretreated Avicel in the presence of 15% IL decreases by 43% compared to 0% IL, while the decrease is only 10% in the case of Pho EG on the same substrate under similar conditions (Table 7).
The hydrolysis reactions are performed under pH and temperatures for each enzyme as described herein. The reactions are run over a 14 h period with 5-10 mg of enzyme with 6% (w/v) enzyme loading in optimum buffer for each enzyme and run in duplicate. The reaction products are measured on a HPLC and HPAEC. The amounts of sugars detected are shown in mmoles and normalized with regards to amount of enzyme and time of reaction. Different reactions under each enzyme were run under exactly similar conditions.
[C2mim][OAc] (1 kg, as received, <0.2% moisture specified) is heated to 130° C. in a 1.5 L glass reaction vessel with mechanical stirring and 8% w/w (corn stover, 4.8% moisture) or 10% w/w (Avicel PH-101, 3% moisture). After around 3 h when the majority (corn stover) or all (Avicel) has dissolved, the dissolved corn stover or Avicel is allowed to cool to below 80° C. and is added to 2 L of 95% ethanol with rapid agitation to induce the precipitation of dissolved materials. The resulting slurry is filtered under pressure through polypropylene filter cloth and the solids redispersed in 2 L of additional ethanol. The filtration and redispersion steps are repeated twice to remove most residual ionic liquid and the filter cake dried under vacuum at 40° C. to yield a free-flowing powder product. Residual free ionic liquid remaining in the dried biomass is estimated to be less than 4% (w/w).
Enzymatic activity is measured on soluble polysaccharide substrates, CMC, using the 3,5-dinitrosalicylic acid (DNS) reducing sugar assay. Briefly, 2% CMC (w/v) in […] acetate buffer, (100 mM, pH 4.5 and pH 4.8 for T. viride and Tma, respectively, and 100 mM MES buffer, pH 6.4 for P. hori EG) is incubated at 80° C. for 30 min for Tma Cel5A and Pho enzymes and 37° C. and 10 min for T. viride. The solution is cooled down to 4° C. and […] of DNS solution is added. The reactants are incubated at 95° C. for 5 min and cooled down to room temperature before the absorbance is read at 540 nm. […]

Row | Molecule | Melting Temp. ([1]; 0% EMIM Acetate, listed as T. maritima) | Melting Temp. ([1]; 0% EMIM Acetate, listed as T. maritima endoglucanase) | Melting Temp. ([1]; 5% EMIM Acetate) | Melting Temp. Decrease ([1]; 5% EMIM Acetate vs 0%) | Melting Temp. ([1]; 10% EMIM Acetate) | Melting Temp. Decrease ([1]; 10% EMIM Acetate vs 0%) | Melting Temp. ([1]; 15% EMIM Acetate) | Melting Temp. Decrease ([1]; 15% EMIM Acetate vs 0%) | Melting Temp. ([1]; 20% EMIM Acetate) | Melting Temp. Decrease ([1]; 20% EMIM Acetate vs 0%) | Sugars produced (sum of glucose, cellobiose and xylose) ([2]; 0% [C2mim][OAc]) | Sugars produced (sum of glucose, cellobiose and xylose) ([2]; 5% [C2mim][OAc]) | Sugars produced (sum of glucose, cellobiose and xylose) ([2]; 10% [C2mim][OAc]) | Sugars produced (sum of glucose, cellobiose and xylose) ([2]; 15% [C2mim][OAc])
1 | Tma Cel5A: wild-type cellulase of Thermatoga maritima strain MSB8 (Accession No. NP_229549); SEQ ID NO: 20 (protein, listed as Thermotoga maritima) MGVDPFERNKILGRGINIGNALEAPNEGDWGVVIKDEFFDIIKEAGFSHVRIPIRWSTHAYAFPPYKIMDRFFKRVDEVINGALKRGLAVVINIHHYEELMNDPEEHKERFLALWKQIADRYKDYPETLFFEILNEPHGNLTPEKWNELLEEALKVIRSIDKKHTIIIGTAEWGGISALEKLSVPKWEKNSIVTIHYYNPFEFTHQGAEWVEGSEKWLGRKWGSPDDQKHLIEEFNFIEEWSKKNKRPIYIGEFGAYRKADLESRIKWTSFVVREMEKRRWSWAYWEFCSGFGVYDTLRKTWNKDLLEALIGGDSIE | 108 °C | 109 °C | 101 °C | 8 °C | 98 °C | 11 °C | 93 °C | 16 °C | 89 °C | 20 °C | 9 ± 1 µmol/min/mg | 8 ± 0.9 µmol/min/mg | 7 ± 1 µmol/min/mg | 5.9 ± 1^ μmoles min^−1 mg^−1
2 | Pho EG: cellulase of Pyrococcus horikoshii strain OT3 (Accession No. NP_143072); SEQ ID NO: 21 (protein, listed as Pyrococcus horikoshii) MEGNTILKIVLICTILAGLFGQVVPVYAENTTYQTPTGIYYEVRGDTIYMINVTSGEETPIHLFGVNWFGFETPNHVVHGLWKRNWEDMLLQIKSLGFNAIRLPFCTESVKPGTQPIGIDYSKNPDLRGLDSLQIMEKIIKKAGDLGIFVLLDYHRIGCTHIEPLWYTEDFSEEDFINTWIEVAKRFGKYWNVIGADLKNEPHSVTSPPAAYTDGTGATWGMGNPATDWNLAAERIGKAILKVAPHWLIFVEGTQFTNPKTDSSYKWGYNAWWGGNLMAVKDYPVNLPRNKLVYSPHVYGPDVYNQPYFGPAKGFPDNLPDIWYHHFGYVKLELGYSVVIGEFGGKYGHGGDPRDVIWQNKLVDWMIENKFCDFFYWSWNPDSGDTGGILQDDWTTIWEDKYNNLKRLMDSCSKSSSSTQSVIRSTTPTKSNTSKKICGPAILIILAVFSLLLRRAPR | – | – | – | – | – | – | – | – | – | – | 2.14 ± 0.1 µmol/min/mg | 2.2 ± 0.14 µmol/min/mg | 2.0 ± 0.2 µmol/min/mg | 1.9 ± 0.1 µmol/min/mg

— patent US9322042B2, “Thermostable cellulases, and mutants thereof, capable of hydrolyzing cellulose in ionic liquid” (The Regents of the University of California, priority 2009, dated 2016)
